Consider 2 molecules from patent CN114835815A (NINGBO SAIPO BIOTECHNOLOGY CO LTD, dated 2022).

Positions count from the first letter of the chain named.

The target of assay [1] is 人源PGI蛋白 (human pepsinogen I from human gastric mucosa, Lee Biosolutions, cat. 440-50) (human) (UniProt P0DJD8). Put plainly: indirect ELISA, human-derived PGI coated at 2 ug/mL, culture supernatant diluted 50-fold. Background: ELISA stands for enzyme-linked immunosorbent assay.
Assay [2] concerns the target T1, 重组PGI蛋白 (recombinant pepsinogen I protein, expressed in HEK293 cells) (Homo sapiens (Human), UniProt P0DJD9 16-388, limits assumed).
T1 construct: Immunogen and ELISA coating antigen; also called PGI重组蛋白; 重组蛋白
In words: indirect ELISA screen of hybridoma supernatants on coated recombinant PGI.

Sequence of UniProt P0DJD8 (P0DJD8 16-388): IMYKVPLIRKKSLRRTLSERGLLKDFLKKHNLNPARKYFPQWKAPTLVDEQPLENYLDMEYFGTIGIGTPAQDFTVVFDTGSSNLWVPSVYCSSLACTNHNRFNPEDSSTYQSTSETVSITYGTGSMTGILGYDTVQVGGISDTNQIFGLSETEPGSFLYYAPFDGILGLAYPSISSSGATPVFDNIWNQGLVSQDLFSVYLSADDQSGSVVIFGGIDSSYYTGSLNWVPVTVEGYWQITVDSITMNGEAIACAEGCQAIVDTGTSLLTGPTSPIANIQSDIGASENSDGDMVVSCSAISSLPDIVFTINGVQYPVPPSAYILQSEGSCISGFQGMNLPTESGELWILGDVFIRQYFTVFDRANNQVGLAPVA
T1 sequence (P0DJD9 other isoform, or with tags, fused parts or gaps limits assumed): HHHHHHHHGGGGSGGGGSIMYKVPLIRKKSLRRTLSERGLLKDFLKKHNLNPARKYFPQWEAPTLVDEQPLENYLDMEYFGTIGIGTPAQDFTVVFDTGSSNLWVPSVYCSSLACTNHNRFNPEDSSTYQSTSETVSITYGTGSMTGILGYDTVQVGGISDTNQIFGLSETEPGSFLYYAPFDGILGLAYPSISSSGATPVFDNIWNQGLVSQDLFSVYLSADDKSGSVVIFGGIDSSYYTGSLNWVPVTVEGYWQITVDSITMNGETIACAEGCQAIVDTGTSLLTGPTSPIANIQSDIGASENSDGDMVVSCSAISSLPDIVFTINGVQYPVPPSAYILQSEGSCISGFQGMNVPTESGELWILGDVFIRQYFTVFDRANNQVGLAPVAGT

B1: 鼠单克隆抗体36A2 (antibody, V domains shown)
VH: EIQLQQSGPELVKPGASVKVSCKASGYSFTDYNIYWVKQGHGESLEWIGYIDPYNGDTDYNQKFKDRSTLTVDKSSNTAFMHLNSLTSEDSAVYYCARSRNYYGSSFAYWGQGTLVTVSA
VL: DVLMTQTPLSLPVSLGDQASISCRSSQAIVHGNGNTYLEWSLQKPVHSPKLLIFKVSNRFSGVPDRFSGSGSGTDFTLKISRVEAEDLGVYYCFQGSHVPPTFGGGTKLEIK
In assay [1], B1 showed an OD450 of 2.04 OD450.

B2: 鼠单克隆抗体3D9 (antibody, V domains shown)
VH: QVQLQQSGAELAKPGAAVKMSCKASGYTFTSHWMHWVNQRPGQGLEWIGYINPTTGYSEYNQKFKDKATMTADKSSSTAYMHLRSLTSEDSAVYYCARGAYYYGSSRFDYWGQGTTLTVSS
VL: B1 VL with A28T, G32T, S41Y, V46G, H47Q, F54Y, P101W
notes: Mouse monoclonal antibody from a hybridoma; also called 第一单抗
Regarding B2, the binding result in assay [2] was “binds”. In assay [1], the OD450 is 1.87 OD450.
